The source of these data is patent CN113501872A (INST PATHOGEN BIOLOGY CAMS, dated 2021).

The target in this assay is SARS-CoV-2刺突蛋白RBD区重组蛋白 (SARS-CoV-2, UniProt P0DTC2 319-541). The assay can be described thus: indirect ELISA, RBD protein coated, Fab supernatant.

B1: 人源抗SARS-CoV-2病毒Fab抗体SK1 (Fab, V domains shown)
VH: EVQLVESGGGLVQPGRSLRLSCAASGFIFDDYAMHWVRQAPGKGLEWVSGISWNSGTIGYADSVKGRFIISRDNAKNSLYLQLNRLGVEDTALYYCVKDIYYRDRNLGFAFDIWGQGTMVTVSS
VL: DIQLTQSPSSLSASIGDTVTITCRASQSIDNYLHWYQKKPGIAPKLLISATSTLENGVPSRFSGSRSGTDFTLTISSLQIEDFATYYCQQGHSVPLTFGGGTKLEVR
notes: also called SK1 Fab
On to B1, for which the binding result is “binds”.
